Our source for the binding result, Ki and IC50 values is patent publication US20090082262A1 (published 2009).

*: point of attachment. Nonanoyl = CCCCCCCCC(=O)*

Test [1] concerns the target T1, chemokine receptor 5 (CCR5) (human, UniProt P51681 1-352).
T1 construct: whole, on cells
Description: radioligand competition binding as in Example 4. As for the experimental part: (§1) For determination of its binding properties, CHO-K1 cells were used which were stably transfected with the chemokine receptors CCR1, CCR3, CCR5. Therefore, crude membrane extracts prepared from the CHO-K1 cell lines expressing the various GPC were used in radioligand binding assays. Competition binding assays were performed in Minisorp tubes (Nunc, Roskilde, Denmark) in a total volume of 100 μl containing 0.1 nM iodinated ligand as tracer, variable concentrations of competitors and defined amount of membranes. Total binding was measured in the absence of competitor and non-specific binding was measured with a 100-fold excess, of unlabelled ligand. Samples were incubated for 90 minutes at 25° C. then filtered through GF/B filters presoaked in 0.3% polyethylenenimine. Filters were counted in a gamma scintillation counter (Packard). Binding parameters were determined with the PRISM software (Graphpad software, San Diego, Calif.) using non-linear regression applied to a one site competition model.
FIG. 6 represents the compound PHC-1, full size HCC-1 and reference chemokines tested on CCR1, CCR3 and CCR5. Competition binding assays were performed with [¹²⁵I]-RANTES for CCR1, [¹²⁵I]-Eotaxin for CCR3 and [¹²⁵I]-MIP-1, for CCR5. PHC-1, HCC1, MIP-1, RANTES, Eotaxin and MCP-4 were used as competitors. […]
On the technique in general: In a radioligand displacement assay an active substance lowers the binding of a labelled ligand.

Test [2] deals with T2, chemokine receptor 1 (CCR1) (UniProt P56482 1-355). Description: radioligand competition binding on CCR1.
T2 sequence (P56482 whole entry): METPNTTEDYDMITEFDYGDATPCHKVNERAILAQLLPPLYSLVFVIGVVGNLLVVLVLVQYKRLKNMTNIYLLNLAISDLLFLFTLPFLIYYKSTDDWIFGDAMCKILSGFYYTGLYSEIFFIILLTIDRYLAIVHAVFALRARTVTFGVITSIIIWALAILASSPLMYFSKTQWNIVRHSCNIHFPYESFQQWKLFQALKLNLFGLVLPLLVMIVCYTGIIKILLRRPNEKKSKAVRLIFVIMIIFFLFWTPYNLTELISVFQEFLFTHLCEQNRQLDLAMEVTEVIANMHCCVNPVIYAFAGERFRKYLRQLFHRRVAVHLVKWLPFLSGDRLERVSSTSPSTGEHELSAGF
Test [3] addresses T1, chemokine receptor 5 (CCR5). Description: competition with [125I]-MIP-β1, CHO-K1 membranes. As for the experimental part: as §1
FIG. 6 represents the compound PHC-1, full size HCC-1 and reference chemokines tested on CCR1, CCR3 and CCR5. Competition binding assays were performed with [¹²⁵I]-RANTES for CCR1, [¹²⁵I]-Eotaxin for CCR3 and [¹²⁵I]-MIP-1, for CCR5. PHC-1, HCC1, MIP-1, RANTES, Eotaxin and MCP-4 were used as competitors. FIGS. 3 and 4 show the binding of additional chemokine compounds of the invention to the CCR5 and CCR1 respectively. Competition assays were performed with [¹²⁵I]-MIP-β1 for CCR5, and [¹²⁵I]-MIP-α1 for CCR1. Each of the chemokine compounds tested was capable of binding both the CCR5 and CCR1 receptors.

Test [4] deals with T2, chemokine receptor 1 (CCR1). Briefly: competition with 125I-Rantes binding to CCR1.
For test [5] the target is unchanged. Description: competition with 0.1 nM 125I-Rantes, membranes of CHO-K1 cells expressing CCR1, filtration.
The target in the next test is T3, chemokine receptor CCR3 (UniProt P51677 1-355, limits assumed).
T3 construct: whole, on cells
T3 sequence (looked up): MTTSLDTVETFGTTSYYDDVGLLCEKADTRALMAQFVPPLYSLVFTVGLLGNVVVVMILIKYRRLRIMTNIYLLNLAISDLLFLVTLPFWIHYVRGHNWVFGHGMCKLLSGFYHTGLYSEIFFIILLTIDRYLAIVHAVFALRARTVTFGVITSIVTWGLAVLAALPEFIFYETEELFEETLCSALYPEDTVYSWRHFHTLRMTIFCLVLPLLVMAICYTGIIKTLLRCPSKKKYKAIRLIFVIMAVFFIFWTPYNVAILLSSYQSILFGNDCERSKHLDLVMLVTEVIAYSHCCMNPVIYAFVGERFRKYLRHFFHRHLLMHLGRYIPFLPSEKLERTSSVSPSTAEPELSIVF
Briefly: competition with 0.1 nM 125I-Eotaxin, membranes of CHO-K1 cells expressing CCR3, filtration. As for the experimental part:
as §1
The processed chemokine PHC-1 was a strong competitor of ¹²⁵I-Rantes binding to CCR1 with half-maximal inhibitory concentration of 2.3±0.7 nM. (Ki±SEM).

T1 sequence (P51681 whole entry): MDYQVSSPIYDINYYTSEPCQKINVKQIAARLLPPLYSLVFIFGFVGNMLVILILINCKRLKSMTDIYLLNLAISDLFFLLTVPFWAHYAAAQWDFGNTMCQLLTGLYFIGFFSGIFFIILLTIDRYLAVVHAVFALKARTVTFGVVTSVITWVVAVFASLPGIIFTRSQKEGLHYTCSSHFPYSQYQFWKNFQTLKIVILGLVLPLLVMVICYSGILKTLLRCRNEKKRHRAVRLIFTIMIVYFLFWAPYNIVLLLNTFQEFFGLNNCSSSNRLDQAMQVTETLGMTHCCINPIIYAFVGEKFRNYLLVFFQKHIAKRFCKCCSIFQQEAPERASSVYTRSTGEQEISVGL

B1: NNY-HCC-1[10-74] (ligand)
chain: Nonanoyl-PYHPSECCFTYTTYKIPRQRIMDYYETNSQCSKPGIVFITKRGHSVCTNPSDKWVQDYIKDMKEN
modifications: ends and bridges not checked
notes: An N-terminally modified analog of HCC-1[10-74]; also called nonanoyl-HCC-1[10-74]
Turning to B1, the binding result in test [1] is listed as “binds”.

B2: full size HCC-1 (HCC-1, residues 1-74) (ligand)
chain: TKTESSSRGPYHPSECCFTYTTYKIPRQRIMDYYETNSQCSKPGIVFITKRGHSVCTNPSDKWVQDYIKDMKEN
notes: The 74-residue chemokine, Mr 8673; also called full-length HCC-1; HCC-1, 1-74
On to B2, for which the affinity in test [2], expressed as Ki, was 100 nM.

B3: HCC-1[11-74] (ligand)
chain: YHPSECCFTYTTYKIPRQRIMDYYETNSQCSKPGIVFITKRGHSVCTNPSDKWVQDYIKDMKEN
notes: Synthetic, oxidatively folded
B3: the binding result in test [3] is recorded as “binds”.

B4: PHC-1 (HCC-1[9-74]) (ligand)
chain: GPYHPSECCFTYTTYKIPRQRIMDYYETNSQCSKPGIVFITKRGHSVCTNPSDKWVQDYIKDMKEN
notes: Purified from human hemofiltrate or made by tryptic digestion of HCC-1 1-74; also called processed chemokine PHC-1; HCC-1, residues 9-74
In test [4], B4 displayed a Ki of 23 µM. The IC50 in test [5] was found to be 2.3 nM; with chemokine receptor CCR3, 78 nM.

B5: HCC-1[7-74] (ligand)
chain: SRGPYHPSECCFTYTTYKIPRQRIMDYYETNSQCSKPGIVFITKRGHSVCTNPSDKWVQDYIKDMKEN
notes: Synthetic, oxidatively folded
On to B5, for which the binding result in test [3] was “binds”.

B6: HCC-1[10-74] (ligand)
chain: PYHPSECCFTYTTYKIPRQRIMDYYETNSQCSKPGIVFITKRGHSVCTNPSDKWVQDYIKDMKEN
notes: Synthetic, oxidatively folded
As for B6, the binding result in test [3] is reported as “binds”.

B7: HCC-1[8-74] (ligand)
chain: RGPYHPSECCFTYTTYKIPRQRIMDYYETNSQCSKPGIVFITKRGHSVCTNPSDKWVQDYIKDMKEN
notes: Synthetic, oxidatively folded
Turning to B7, the binding result in test [3] is “binds”.

The term Ki denotes the equilibrium dissociation constant of an inhibitor or competing ligand from its target. Low values mean tighter binding, high ones weaker binding. As a reminder, the IC50 is the midpoint of a concentration-inhibition curve. Higher therefore signals lower potency.
